Data reported in patent publication US20040014191A1, “Nitroreductase enzymes” (priority 1999, published 2004).
Read-outs that look alike come from different tables or passages of the source.

B1: Rat DTD: rat DT-diaphorase enzyme (protein, UniProt P05982 2-274, looked up)
NAD(P)H dehydrogenase …: AVRRALIVLAHAERTSFNYAMKEAAVEALKKKGWEVVESDLYAMNFNPLISRNDITGEPKDSENFQYPVESSLAYKEGRLSPDIVAEQKKLEAADLVIFQFPLYWFGVPAILKGWFERVLVAGFAYTYATMYDKGPFQNKKTLLSITTGGSGSMYSLQGVHGDMNVILWPIQSGILRFCGFQVLEPQLVYSIGHTPPDARVQVLEGWKKRLETVWEESPLYFAPSSLFDLNFQAGFLLKKEVQEEQKKNKFGLSVGHHLGKSIPADNQIKARK
B2: E. coli BNfnB (protein)
chain: MDIISVALKRHSTKAFDASKKLTPEQAEQIKTLLQYSPSSTNSQPWHFIVASTEEGKARVAKSAAGNYVFNERKMLDASHVVVFCAKTAMDDVWLKLVVDQEDADGRFATPEAKAANDKGRKFFADMHRKDLHDDAEWMAKQVYLNVGNFLLGVAALGLDAVPIEGFDAAILDAEFGLKEKGYTSLVVVPVGHHSVEDFNATLPKSRLPQNITLTEV
B3: Synechocystis: nitroreductase from Synechocystis sp PCC 6803, SEQ ID NO: 19 (protein)
chain: MDTFDAIYQRRSVKHFDPDHRLTAEEERKLHEAAIQAPTSFNIQLWRFLIIRDPQLRQTIREKYGNQAQMTDASLLILVAADVNAWDKDPARYWRNAPREVANYLVGAIAFYGGKPQLQRDEAQRSIGMAMQNLMLAAKAMGYDSCPMIGFDLQKVAELVKLPADYAIGPMVAIGKRTEDARAKGGQTPLEELVWENSFA
modifications: Synechocystis PCC6803
B4: YodC: nitroreductase from B. subtilis, SEQ ID NO: 12 (coded for by SEQ ID NO: 11) (protein, listed as Bacillus subtilis)
chain: MTNTLDVLKARASVKEYDTNAPISKEELTELLDLATKAPSAWNLQHWHFTVFHSDESKAELLPVAYNQKQIVESSAVVAILGDLKANENGEEVYAELASQGYITDEIKQTLLGQINGAYQSEQFARDSAFLNASLAAMQLMIAAKAKGYDTCAIGGFNKEQFQKQFDISERYVPVMLISIGKAVKPAHQSNRLPLSKVSTWL
B5: Bs YwrO: nitroreductase from B. subtilis, SEQ ID NO: 4 (protein, listed as Bacillus subtilis)
chain: MKILVLAVHPHMETSVVNKAWAEELSKHDNITVRDLYKEYPDEAIDVAKEQQLCEEYDRIVFQFPLYWYSSPPLLKKWQDLVLTYGWAFGSEGNALHGKELMLAVSTGSEAEKYQAGGANHYSISELLKPFQATSNLIGMKYLPPYVFYGVNYAAAEDISHSAKRLAEYIQQPFV
B6: YdeQ: nitroreductase from B. subtilis, SEQ ID NO: 8 (protein, listed as Bacillus subtilis)
chain: MDHMKTLVLVVHPNIESSRINKKWKEAVLSEPDVTVHDLYEKYRDQPIDVEFEQQQLLAHDRIVFQFPLYWYSSPPLLKQWFDEVFTFGWAHGPGGNKLKGKEWVTAMSIGSPEHSYQAGGYNLFSISELTKPFQASAHLVGMTYLPSFAEYRANTISDQEIAESANRYVKHITNIELNPKVRLQRYLKQLESVDLT
B7: H. pylori: nitroreductase from Helicobacter pylori, SEQ ID NO: 29 (protein, listed as Helicobacter pylori)
chain: MKFLDQEKRRQLLNERHSCKMFDSHYEFSSEELEEIAEIARLSPSSYNTQPWHFVMVTNKDLKKQIAAHSYFNEEMIKSASALMVVCSLKPSELLPTGHYMQNLYPESYKVRVIPSFAQMLGVRFNHSMQKLESYILEQCYIAVGQICMGVSLMGLDSCIIGGFDPLKVGEVLEERINKPKIACLIALGKRVAEASQKSRKSKVDAITWL
B8: C. jejuni NfnB: nitroreductase from Campylobacter jejuni, SEQ ID NO: 23 (protein, listed as Campylobacter jejuni)
chain: MKKELEIFSTRYSCRNFKNEKLKKEDLNSILEIARLSPSSLGLEPWKFIVVQDEKRKEELSKICNQQKHVKDCAALIIIISRLDFLDYFEEKLRKRDMSETEMQKRLDTYMPFLKSLNQEQKISYAREQAHIALASILYSANALNIASCTIGGFDKEKLDSYLSLDIQKERSSLVVALGYCNDKKNPQKNRFSFDEVVKFI
B9: YrkL: nitroreductase from B. subtilis, SEQ ID NO: 6 (protein, listed as Bacillus subtilis)
chain: MKTLVIVIHPNLETSVVNKTWMNRLKQEKDITVHDLYGEYPNFIIDVEKEQQLLLDHERIVFQFPMYWYSSPALLKQWEDDVLTHGWAYGTGGTKLHGKELLLAISSGAQESDYQAGGEYNITISELIRPFQVTANYIGMRFLPAFTQYGTLHLSKEDVKNSAERLVDYLKAEH

How the values were obtained:
[1] = test system: Cc1cc2nc3c(=O)[nH]c(=O)nc-3n(C[C@H](O)[C@H](O)[C@H](O)COP(=O)(O)OP(=O)(O)OC[C@H]3O[C@@H](n4cnc5c(N)ncnc54)[C@H](O)[C@@H]3O)c2cc1C; assay: purified protein, by the assay type
Procedure: Quantitative assays using CB 1954 or SN 23862 as substrate were carried out at 37° C. by HPLC as previously described (2) (3). […] Incubation times varied according to the enzyme activity being studied.

[2] = Nitroreductase enzyme assay with CB 1954 as substrate (HPLC); type: biochemical; conditions: for CB1954 (product formed / activity): Table 2, recombinant B. subtilis enzymes, crude lysates
[3] = Nitroreductase enzyme assay with SN 23862 as substrate (HPLC); type: biochemical; conditions: for SN 23862 acitvity: Table 6; for SN23862 (activity): Table 2, recombinant B. subtilis enzymes, crude lysates; for SN 23862 acitvity, second number of the cell (kcat) / Km: Table 6, HPLC assay; for Km: read-out: SN 23862 acitvity, first number of the cell (Km)
[4] = test system: recombinant enzymes (antigens); assay: Polyclonal antisera titres by ELISA; type: binding; conditions: rabbit antiserum; for Post-boost titre: 10 days after booster; for Pre-boost titre (50%): after 8 weeks
Procedure: Polyclonal antisera were raised against recombinant enzymes by immunising rabbits with […] of protein in 50% PBS:50% Freund's complete adjuvant, total volume 400 μl. Blood was collected by ear bleed after 6-8 weeks and again 10 days after a booster immunisation of protein, and titre assessed by ELISA. 96-well plates were coated with 1 μg ml^−1 of the proteins and blocked with 10% v/v foetal calf serum (FCS), antibodies were diluted in assay buffer (1% FCS) and applied in doubling dilutions across the plate from 1 in 100 to 1 in 51 200 or 1 in 150 to 1 in 76 800. A secondary antibody conjugated with HRP (dilution 1 in 10 000) was used to develop the assay with 3,3′,5,5′-tetramethylbenzidine (TMB) as substrate.
Antisera to E. coli B NfnB and six novel proteins (Haemophilus influenzae and Campylobacter jejuni NfnB homologues, YdgI and YodC of Bacillus subtilis, YwrO of B. amyloliquefaciens and Porphyromonas gingivalis YwrO homologue) have been raised in rabbits by inoculation with 100 μg of protein in PBS+ Freund's complete adjuvant. Titres were assessed by ELISA after 8 weeks, and 10 days after a booster inoculation of a further 100 μg of protein per rabbit. Pre-immune sera were also tested.
96 well plates were coated overnight at 4° C. with the antigens at 1 μg/ml. After washing and blocking antisera were added in doubling dilutions in an appropriate range across the plates. The plates were developed using goat anti-rabbit IgG peroxidase conjugate with TMB as substrate, and read at 450 nm.

[5] = type: biochemical; conditions: Table 6
[6] = type: biochemical; conditions: Table 6; remark: listed apart in the source
[7] = Flavin reductase assay with FMN and FAD; type: biochemical; conditions: for Flavin reductase: Table 6
Procedure: (§1) Assays were carried out spectrophotometrically at 37° C. in 10 mM Tris pH 7.5 using cytochrome c as terminal electron acceptor.

[8] = Quinone reductase assay with menadione, cytochrome c as terminal electron acceptor; type: biochemical; conditions: for Quinone reductase: Table 6
Procedure: as §1

[9] = other: cofactor NADH, 37° C., 10 mM Tris pH 7.5, pH 7.5
[10] = Table 6, 37° C., read-out: Km CB 1954

Row | Molecule | Post-boost titre [4] | Pre-boost titre (50%) [4] | reduction of CB1954: activity and product formed [2] | CB 1954 product ([2]; Table 6, recombinant enzymes) | activity with SN23862 [3] | Cofactor [5] | Azo-Reductase [6] | CB1954 (product formed / activity) [2] | SN23862 (activity) [3] | other results
1 | YodC (Bacillus subtilis subsp. subtilis str. 168) | – | – | – | – | – | – | – | – | – | Km [1, 9]: 0.6 ± 0.1 µM; kcat [1, 9]: 269 ± 4.9 s⁻¹; kcat/Km [1, 9]: 4.48e+08 M⁻¹ s⁻¹; Km ([1]; other: cofactor NADPH, 37.0 °C): 2.4 ± 0.3 µM; kcat ([1]; other: cofactor NADPH, 37.0 °C): 283 ± 7.4 s⁻¹; kcat/Km ([1]; other: cofactor NADPH, 37.0 °C): 1.18e+08 M⁻¹ s⁻¹
2 | B1 | – | – | – | – | – | – | – | – | – | CB1954 kcat ([2]; Table 1): 0.07 s⁻¹; CB 1954 product ([2]; Table 1, purified enzymes): 4HX; SN23862 Km ([3]; Table 1): inactive; SN23862 kcat ([3]; Table 1): inactive
3 | B2 | 11000 | 1300 | – | – | – | – | – | – | – | –
4 | B3 | – | – | only the relatively non-toxic 2HX derivative | 2HX | show activity with SN23862 | NADPH | No | – | – | SN 23862 acitvity [3]: Weak
5 | B4 | 7500 | 3700 | both the 2HX and 4HX derivatives | 4HX | active against both CB1954 and SN23862 | NADPH | Yes | 2/4HX | active | kcat (CB 1954) [2]: 58.0 s⁻¹; kcat for CB1954 (text) [2]: 58 s⁻¹; Km [2, 10]: 552 µM; kcat for CB1954 (text) ([2]; listed as SEQ ID NO: 11): about 15; SN 23862 acitvity, second number of the cell (kcat) [3]: 53.1; Km [3]: 957 µM; flavin reductase activity [7]: high affinity for menadione and flavins; Flavin reductase [7]: Yes; activity with menadione / quinone reductase [8]: high affinity for menadione and flavins; Quinone reductase [8]: Yes
6 | B5 | – | – | inactive with either CB 1954 or SN 23862 | – | inactive with either CB 1954 or SN 23862 | – | – | 4HX | inactive | reduction of CB1954: activity and product formed ([2]; listed as B. subtilis YwrO): converts CB1954 to the 4HX derivative alone; activity with SN23862 ([3]; listed as B. subtilis YwrO): inactive against SN23862
7 | B6 | – | – | no activity with prodrugs | – | no activity with prodrugs | – | – | inactive | inactive | –
8 | B7 | – | – | – | 4 > 2HX | weak activity with SN23862 | NADPH | No | – | – | reduction of CB1954: activity and product formed ([2]; listed as H. pylori NfnB homologue): form the 4HX reduction product of CB1954; reduction of CB1954: activity and product formed ([2]; listed as Helicobacter pylori enzyme): mixture of the 2 and 4HX; SN 23862 acitvity [3]: Weak
9 | B8 | 2500 | 1100 | only the 4HX reduction product | 4HX | active with SN23862 | NADPH | Yes | – | – | kcat (CB 1954) [2]: 6.1 s⁻¹; kcat for CB1954 (text) [2]: 11.2 s⁻¹; Km [2, 10]: 217 µM; Km ([2]; read-out: Km for CB1954): 143 µM; SN 23862 acitvity, second number of the cell (kcat) [3]: 6.4; Km [3]: 224 µM; Flavin reductase [7]: Yes; flavin reductase activity ([7]; listed as C. jejuni NfnB homologue): can use the quinone menadione as substrate as well as azodyes and the flavins FMN and FAD; flavin reductase activity ([7]; listed as C. jejuni protein): high affinity for both FAD and FMN; activity with menadione / quinone reductase [8]: can use the quinone menadione as substrate; Quinone reductase [8]: Yes
10 | B9 | – | – | no activity | – | no activity | – | – | inactive | inactive | –
